# B1: λCI-ZipACTD (residues 186–328) [E. coli] / α-FtsZ fusion protein (wild-type E. coli FtsZ) [E. coli] (parent complex)
# chain 1: not shown
# chain 2: MFEPMELTNDAVIKVIGVGGGGGNAVEHMVRERIEGVEFFAVNTDAQALRKTAVGQTIQIGSGITKGLGAGANPEVGRNAADEDRDALRAALEGADMVFIAAGMGGGTGTGAAPVVAEVAKDLGILTVAVVTKPFNFEGKKRMAFAEQGITELSKHVDSLITIPNDKLLKVLGRGISLLDAFGAANDVLKGAVQGIAELITRPGLMNVDFADVRTVMSEMGYAMMGSGVASGEDRAEEAAEMAISSPLLEDIDLSGARGVLVNITAGFDLRLDEFETVGNTIRAFASDNATVVIGTSLDPDMNDELRVTVVATGIGMDKRPEITLVTNKQVQQPVMDRYQQHGMAPLTQEQKPVAKVVNDNAPQTAKEPDYLDIPAFLRKQAD
# Variants of: B1
# Test: bacterial two-hybrid β-galactosidase assay; 25 μM IPTG; parent: 720; read off a plot
row,Variant,response [Miller Units]
1,chain 2 D180N,~770
2,chain 2 F182S,~770
3,chain 2 L179R,~880
4,chain 2 S177P,~790
5,chain 2 L169P,~790
